According to US7754689B2, “Finger-1 peptide analogs of the TGF-β superfamily” (Wyeth LLC, priority 2006, dated 2010):
Blank lines part the entries; values can stand above or below the molecule they belong to. No end group written: not given here.

Columns and labels:
GDF-9 = molecular target: T1, GDF-9 (Homo sapiens, UniProt O60383); test: Affinity column chromatography, capture and elution of GDF-9; assay type: binding
T1 sequence (O60383 320-454): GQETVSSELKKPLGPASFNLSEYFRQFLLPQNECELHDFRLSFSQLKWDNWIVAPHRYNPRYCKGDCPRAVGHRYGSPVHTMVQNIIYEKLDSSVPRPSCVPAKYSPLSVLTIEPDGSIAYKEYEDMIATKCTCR
Experimental: (§1) BMP-12 was immobilized on NHS-activated Sepharose™ beads at a ratio of about 20 mg:4 mL and the resulting media combined with water or neutral saline buffer to prepare a column. CHO-conditioned media augmented with 1.2 M NaCl was loaded onto the column. In some cases, the media was preconcentrated with respect to BMP before loading. The column was washed with 15 CV (column volumes) of 1.2 M NaCl in 40 mM Na2HPO4 at pH 7.2, followed by 0.5 M arginine/0.5 M NaCl in 20 mM Tris at pH 7.5 (15 CV) and a low salt wash (50 mM ammonium acetate at pH 7, 15 CV). […] Finally, the column was eluted with 5CV of the acetic acid solution with 6M guanidine hydrochloride (GuHCl).
A lower molecular weight contaminant was also present.

BMP-3 = molecular target: T2, BMP-3 (Homo sapiens, UniProt P12645); test: Affinity column chromatography, capture and elution of BMP-3; assay type: binding; conditions: for capture of BMP-3 by column with immobilized ligand: CHO-conditioned media with 1.2 M NaCl (high salt) load; for elution of BMP-3 from column with immobilized ligand: washes, then gradient to 50 mM acetic acid pH 3, then 6M GuHCl
T2 construct: a propeptide fragment copurifies along with the mature protein; made in house; host or cells: CHO cells (conditioned medium)
T2 sequence (P12645 363-472): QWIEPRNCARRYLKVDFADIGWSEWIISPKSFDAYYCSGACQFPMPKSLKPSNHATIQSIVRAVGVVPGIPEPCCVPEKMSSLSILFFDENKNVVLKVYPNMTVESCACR
Experimental: as §1
The eluate was analyzed using HPLC.
4 mL of the resulting resin (1.6×2.0 cm) was used to prepare a column. The column was loaded with BMP-3 and eluted as in Example 1.

BMP-12 [1] = molecular target: T3, BMP-12 (Homo sapiens, UniProt Q7Z4P5); test: Affinity column chromatography, capture and elution of BMP-12; assay type: binding; conditions: for capture of BMP-12 by column with immobilized ligand: high salt / high ionic strength load; for elution of BMP-12 from column with immobilized ligand: washes, then gradient to 50 mM acetic acid pH 3, then 6M GuHCl
T3 sequence (Q7Z4P5 322-450): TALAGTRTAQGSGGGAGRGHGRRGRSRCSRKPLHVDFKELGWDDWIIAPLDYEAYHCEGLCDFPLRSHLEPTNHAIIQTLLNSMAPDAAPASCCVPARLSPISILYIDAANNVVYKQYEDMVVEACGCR
Experimental: as §1
BMP-12 was loaded and eluted from a BMP-12 affinity column as in Example 1.
BMP-12 was purified using a column prepared with the BMP-12 wild type peptide described in Example 7.

BMP-12 [2] = molecular target: T4, BMP-12 (UniProt Q7Z4P5 322-450, limits assumed); test: peptide resin, filter plate; load 1: 50 mM Acetic Acid, 0.1 M NaCl, pH 2.9
T4 construct: also called BMP12/GDF7
T4 sequence (looked up): T3 sequence (Q7Z4P5 322-450)
Experimental: (§2) The coupled resins, plus an unconjugated resin for use as a control, were suspended in 16% ethanol, 150 mM NaCl, and 20 mM Tris buffer at pH 7.5 at a 25% v/v ratio (e.g., 25% ethanol, 75% Tris buffer). A Tecan liquid-handling robot was employed to aliquot 200 μL of each slurry into one of eight rows of a 96 well polystyrene filter plate (0.45 μm hydrophilic filters, Whatman catalog number 770-1806). Spinning at 1200 g for 3 min removed the liquid phase, leaving 50 μL of wet resin on the filters. The resins were then equilibrated with the loading buffers listed in Table 6 (K is a coefficient characterizing the strength of protein binding to a particular resin in a particular buffer). […] The resins were loaded by transferring 150 μL from the load plate to the filter plate and then incubating 20 min on a shaking platform to facilitate binding. The filter plate was spun down and the filtrate collected in a 96 well UV plate. The protein concentration in the filtrate, or flow-through, was calculated as $(A280-A320)/1.3$. The filter plate was then washed with 150 μL of 100 mM acetic acid, followed by 150 μL of 4M guanidine-HCl and 50 mM sodium acetate at pH 4.0. The protein concentration was measured in the new filtrate as described above. […] Flow-through and acetic acid elution samples from column 4 of the plate (loaded with MES pH 6) were analyzed on a gel (FIG. 14).

BMP-12 [3] = molecular target: T4, BMP-12; test: peptide resin, filter plate; load 6: 1M CHES pH 9.7
Experimental: as §2

BMP-12 [4] = molecular target: T4, BMP-12; test: peptide resin, filter plate; load 11: 50 mM Tris, 0.25 M NaCl, 30% MPD, pH 8.0
Experimental: as §2

BMP-12 [5] = molecular target: T4, BMP-12; test: peptide resin, filter plate; load 3: 25 mM Na Acetate pH 5.0
Experimental: as §2

BMP-12 [6] = molecular target: T4, BMP-12; test: peptide resin, filter plate; load 5: 25 mM HEPES pH 7.0
Experimental: as §2

BMP-12 [7] = molecular target: T4, BMP-12; test: peptide resin, filter plate; load 12: 50 mM Tris, 0.1 M NaCl, 20% MPD, pH 8.0
Experimental: as §2

BMP-12 [8] = molecular target: T4, BMP-12; test: peptide resin, filter plate; load 10: 50 mM Tris, 0.1 M NaCl, 40% MPD, pH 8.0
Experimental: as §2

BMP-12 [9] = molecular target: T4, BMP-12; test: peptide resin, filter plate; load 4: 25 mM MES pH 6.0
Experimental: as §2

BMP-12 [10] = molecular target: T4, BMP-12; test: peptide resin, filter plate; load 2: 50 mM Acetic Acid, 0.1 M NaCl, pH 4.0
Experimental: as §2

capture of GDF-9 by column with immobilized ligand (GDF-9; high salt solution load): effectively captured
capture of BMP-3 by column with immobilized ligand (BMP-3): effectively captured
capture of BMP-12 by column with immobilized ligand (BMP-12 [1]): effectively captured
elution of BMP-12 from column with immobilized ligand (BMP-12 [1]): eluted with acetic acid
Molecule: SDVGWNDWIVAPPGYHAFYCHGEK [SEQ ID NO: 1]
elution of GDF-9 from column with immobilized ligand (GDF-9): eluted with both 500 mM arginine and acetic acid
elution of BMP-3 from column with immobilized ligand (BMP-3): eluted, along with a propeptide fragment, in acetic acid

capture of BMP-3 by column with immobilized ligand (BMP-3): effectively captured
effectiveness of immobilized ligand compared with the BMP-2 mutant (BMP-3; in general): less effective than the BMP-2 mutant
elution of BMP-3 from column with immobilized ligand (BMP-3): eluted in acetic acid
capture of BMP-12 by column with immobilized ligand (BMP-12 [1]): effectively captured
elution of BMP-12 from column with immobilized ligand (BMP-12 [1]): eluted with acetic acid
Molecule: KELGWDDWIIAPLDYEAYHCEGLC [SEQ ID NO: 2]

100 mM HAc elution K (BMP-12 [2]): 1
100 mM HAc elution conc (BMP-12 [2]): 0.058 mg/mL
4M Gnd, 50 mM NaAc pH 4 Strip Conc (BMP-12 [2]): 0.024 mg/ml
Flow-through K (BMP-12 [2]): 1
Flow-through conc (BMP-12 [2]): 0.397 mg/mL
Flow-through K (BMP-12 [3]): -1
Flow-through conc (BMP-12 [3]): 0.626 mg/mL
Flow-through K (BMP-12 [4]): 0
Flow-through conc (BMP-12 [4]): 0.431 mg/mL
100 mM HAc elution K (BMP-12 [5]): 0
100 mM HAc elution conc (BMP-12 [5]): 0.073 mg/mL
4M Gnd, 50 mM NaAc pH 4 Strip Conc (BMP-12 [5]): 0.026 mg/ml
Flow-through K (BMP-12 [5]): 1
Flow-through conc (BMP-12 [5]): 0.407 mg/mL
100 mM HAc elution K (BMP-12 [6]): 0
100 mM HAc elution conc (BMP-12 [6]): 0.077 mg/mL
4M Gnd, 50 mM NaAc pH 4 Strip Conc (BMP-12 [6]): 0.021 mg/ml
Flow-through K (BMP-12 [6]): 1
Flow-through conc (BMP-12 [6]): 0.397 mg/mL
Flow-through K (BMP-12 [7]): 0
Flow-through conc (BMP-12 [7]): 0.435 mg/mL
Flow-through K (BMP-12 [8]): 0
Flow-through conc (BMP-12 [8]): 0.464 mg/mL
100 mM HAc elution K (BMP-12 [9]): -1
100 mM HAc elution conc (BMP-12 [9]): 0.104 mg/mL
4M Gnd, 50 mM NaAc pH 4 Strip Conc (BMP-12 [9]): 0.027 mg/ml
Flow-through K (BMP-12 [9]): 0
Flow-through conc (BMP-12 [9]): 0.426 mg/mL
100 mM HAc elution K (BMP-12 [10]): 1
100 mM HAc elution conc (BMP-12 [10]): 0.057 mg/mL
4M Gnd, 50 mM NaAc pH 4 Strip Conc (BMP-12 [10]): 0.026 mg/ml
Flow-through K (BMP-12 [10]): 1
Flow-through conc (BMP-12 [10]): 0.41 mg/mL
Molecule: Ac-VAPPGYHAFYSHGEK [BMP2 N-trunc_2 peptide 745]
